This data set concerns the molecule itself. The data set can be described thus: size exclusion chromatography (homodimerization) of GFP-tagged PAN domain purified from HEK293 cells. From the text:
These cysteine residues coordinate three disulfide bridges to form a hairpin structure. The inventors hypothesized that cysteine rich PAN domain of G-lecRLKs form disulfide bonds involved in dimerization and subsequent receptor proteolysis to prevent downstream signaling cascades. To address this hypothesis, a GFP tagged PAN domain construct of RLK5 was made. In addition, mutated amino acids in the RLK5 vestigial domain were restored to consensus PAN domain amino acids based on the alignment in FIG. 1, this construct was designated RLK5-restored (RLK5R). Both RLK5 and RLK5R constructs were transfected and overexpressed in HEK293 cells. Proteins were purified on GFP column and loaded into size exclusion column (SEC) to analyze the oligomeric state.

B1: GFP tagged PAN domain construct of RLK5 (SapurV1A.0037s0270.1) (receptor)
chain: DSDYNMDTYEHTFLYGIYPPNEAIIIASLQQCREVCMQDPGCTAATFTNDGTSQCRMKTSPYFSGHQNPSLSSISFVKT
notes: It was expressed in HEK293 cells and purified on a GFP column; not shown: GFP tag
Consider B1, for which the binding result was “no binding”.

The record behind these values is US20210072228A1 (UT BATTELLE, published 2021).
